Assay [1] addresses T1, tyrosyl-tRNA synthetase (YRS), recombinant (UniProt P54577 1-528, limits assumed).
T1 sequence (looked up): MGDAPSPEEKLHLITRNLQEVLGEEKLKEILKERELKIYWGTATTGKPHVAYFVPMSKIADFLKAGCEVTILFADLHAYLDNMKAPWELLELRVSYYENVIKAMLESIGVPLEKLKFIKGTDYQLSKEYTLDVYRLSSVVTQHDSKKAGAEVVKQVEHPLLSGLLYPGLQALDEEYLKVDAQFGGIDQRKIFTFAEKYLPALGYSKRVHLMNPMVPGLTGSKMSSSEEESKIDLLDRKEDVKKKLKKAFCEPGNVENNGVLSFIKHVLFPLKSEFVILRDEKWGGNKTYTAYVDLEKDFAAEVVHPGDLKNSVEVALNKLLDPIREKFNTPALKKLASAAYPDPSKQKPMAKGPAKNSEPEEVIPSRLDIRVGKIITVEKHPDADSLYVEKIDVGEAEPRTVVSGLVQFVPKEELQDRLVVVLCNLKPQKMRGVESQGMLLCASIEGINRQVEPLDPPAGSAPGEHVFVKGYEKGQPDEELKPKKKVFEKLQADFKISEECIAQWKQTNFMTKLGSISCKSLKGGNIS
Description: Luminex multiplex bead assay, antigen coupled to beads, anti-HA-biotin and SA-PE detection. The protocol:
(§1) Then, 50 mg/ml S—NHS (N-hydroxysulfosuccinimide) and 50 mg/ml EDAC (1-ethy-3-[3-dimethylaminopropyl]carbodiimide) were added, followed by activation at room temperature for 20 minutes. The activated beads were washed with PBS, and then 10 μg of respective recombinant ARS antigens, that is, WRS, HRS, NRS, KRS, SRS, YRS, GRS, and AIMP1(p43), which were purified at purity of 90% or higher, were added, followed by reaction at room temperature for 2 hours. The beads linked to the respective ARS antigens were washed. two times with PBS, and then a blocking buffer was added to perform a reaction at room temperature for 30 minutes, thereby blocking unbound residues. Then, the resultant beads were washed two times with PBS, and again dispersed in 100 μl of PBS, and kept in tubes in which the light was blocked. The number of beads bound was measured and recorded by hemocytometer.
(§2) The antibody of the present invention extracted from the periplasm was first diluted with a specimen diluent (PBST+2% BSA) to 1:400. Then, the diluted antibody was diluted 2-fold serially with a specimen diluent, and dispensed in 96 well filter plate at 50 μl for each well. Only the specimen diluent was added in the blank well without the antibody. The ARS-bound beads were put in bead mix tubes to 2000 beads per well, respectively, and the specimen diluent was put with a volume such that 50 μl of the specimen diluent could be put per well. The bead mix solution was well mixed and dispensed in each well, followed by reaction in dark room for 1 hour. After the reaction was ended, the resultant solution was washed three times with PBS (200 μl/well) using a vacuum manifold, 50 μl Anti-(HA)-biotin secondary antibody was added, followed by further reaction in dark room for 1 hour. The beads binding to the secondary antibody were washed three times with PBS, and then, for fluorescent labeling, SA-PE (Streptavidin-Phycoerythrin) was added to 2 μg/ml, followed by reaction in dark room for 30 minutes, washing three times with PBS, and again dispersion in 100 μl of PBS. The fluorescent intensity of the fluorescence-labeled beads was measured using Bio-Plex (Luminex) 200 equipment and Bio-Plex manager program, and the measurement values were analyzed to investigate the binding of the antibody to each ARS.

In assay [2] the target is T2, glycyl-tRNA synthetase (GRS), recombinant (UniProt P41250 55-739, limits assumed).
T2 sequence (looked up): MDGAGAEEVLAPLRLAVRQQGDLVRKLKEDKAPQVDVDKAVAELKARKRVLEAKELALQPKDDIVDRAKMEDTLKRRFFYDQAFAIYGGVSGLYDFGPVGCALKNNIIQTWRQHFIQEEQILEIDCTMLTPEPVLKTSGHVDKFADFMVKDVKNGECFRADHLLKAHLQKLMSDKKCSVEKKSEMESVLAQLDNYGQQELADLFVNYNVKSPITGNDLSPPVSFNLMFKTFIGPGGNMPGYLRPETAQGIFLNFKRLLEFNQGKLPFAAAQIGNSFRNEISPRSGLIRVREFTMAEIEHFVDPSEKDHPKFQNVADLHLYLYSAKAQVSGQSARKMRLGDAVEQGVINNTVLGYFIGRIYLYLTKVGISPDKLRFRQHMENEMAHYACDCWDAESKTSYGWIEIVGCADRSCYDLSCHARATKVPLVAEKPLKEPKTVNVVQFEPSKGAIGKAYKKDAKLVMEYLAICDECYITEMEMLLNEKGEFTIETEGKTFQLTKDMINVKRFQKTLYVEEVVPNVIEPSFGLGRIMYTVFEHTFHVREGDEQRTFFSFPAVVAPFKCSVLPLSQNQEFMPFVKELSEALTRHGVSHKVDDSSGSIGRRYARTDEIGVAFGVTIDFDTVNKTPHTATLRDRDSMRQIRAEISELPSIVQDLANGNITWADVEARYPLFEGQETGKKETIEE
The assay is described as above. The protocol: as §1, §2

Assay [3] deals with T3, aminoacyl-tRNA-synthetase-interacting multifunctional protein 1 (AIMP1), recombinant (UniProt Q12904 1-312, limits assumed).
T3 construct: also called AIMP1(p43); p43
T3 sequence (looked up): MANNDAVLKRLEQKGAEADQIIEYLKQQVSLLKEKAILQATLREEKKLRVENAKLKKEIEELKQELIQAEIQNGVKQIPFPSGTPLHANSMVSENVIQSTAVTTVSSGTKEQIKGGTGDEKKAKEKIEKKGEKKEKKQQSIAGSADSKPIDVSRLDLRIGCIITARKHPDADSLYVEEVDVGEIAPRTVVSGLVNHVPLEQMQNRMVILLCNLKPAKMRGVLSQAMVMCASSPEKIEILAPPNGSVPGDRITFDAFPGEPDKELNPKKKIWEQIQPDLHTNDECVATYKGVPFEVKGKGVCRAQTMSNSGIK
The description is as above. The protocol: as §1, §2

Assay [4] concerns the target T4, asparaginyl-tRNA synthetase (NRS), recombinant (UniProt O43776 1-548, limits assumed).
T4 sequence (looked up): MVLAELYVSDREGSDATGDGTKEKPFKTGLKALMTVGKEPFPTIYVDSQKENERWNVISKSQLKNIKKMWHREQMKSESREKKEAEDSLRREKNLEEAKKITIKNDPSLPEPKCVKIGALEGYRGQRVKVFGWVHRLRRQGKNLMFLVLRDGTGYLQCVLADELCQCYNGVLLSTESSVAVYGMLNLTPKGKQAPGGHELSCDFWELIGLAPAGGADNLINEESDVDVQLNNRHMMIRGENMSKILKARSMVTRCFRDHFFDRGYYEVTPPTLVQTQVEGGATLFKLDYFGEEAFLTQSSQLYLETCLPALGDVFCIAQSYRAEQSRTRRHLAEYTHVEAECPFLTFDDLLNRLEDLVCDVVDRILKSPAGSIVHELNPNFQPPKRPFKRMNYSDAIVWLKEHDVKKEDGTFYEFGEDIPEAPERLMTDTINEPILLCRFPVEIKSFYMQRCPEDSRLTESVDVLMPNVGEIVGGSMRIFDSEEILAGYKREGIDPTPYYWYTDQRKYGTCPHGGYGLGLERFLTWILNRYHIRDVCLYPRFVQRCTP
The assay is described as above. The protocol: as §1, §2

The target of assay [5] is seryl-tRNA synthetase (SRS), recombinant (UniProt P49591 1-514, limits assumed). Described as above. The protocol:
as §1, §2

For assay [6], the target named is T5, tryptophanyl-tRNA synthetase (WRS), recombinant (UniProt P23381 1-471, limits assumed).
T5 sequence (looked up): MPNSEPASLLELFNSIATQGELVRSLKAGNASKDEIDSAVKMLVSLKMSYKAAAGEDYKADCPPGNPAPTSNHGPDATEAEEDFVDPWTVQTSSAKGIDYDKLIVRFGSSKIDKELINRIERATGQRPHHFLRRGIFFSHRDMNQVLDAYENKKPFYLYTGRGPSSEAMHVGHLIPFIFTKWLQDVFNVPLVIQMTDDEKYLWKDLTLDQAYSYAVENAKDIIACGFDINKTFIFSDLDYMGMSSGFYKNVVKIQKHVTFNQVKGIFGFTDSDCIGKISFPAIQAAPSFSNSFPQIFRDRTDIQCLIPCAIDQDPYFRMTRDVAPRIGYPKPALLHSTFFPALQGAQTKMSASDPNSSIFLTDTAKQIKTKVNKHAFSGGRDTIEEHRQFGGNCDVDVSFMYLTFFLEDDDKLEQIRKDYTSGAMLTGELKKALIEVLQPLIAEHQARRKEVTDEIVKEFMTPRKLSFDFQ
Described as above. The protocol:
as §1, §2

For assay [7], the target named is T6, histidyl-tRNA synthetase (HRS), recombinant (UniProt P12081 1-509, limits assumed).
T6 sequence (looked up): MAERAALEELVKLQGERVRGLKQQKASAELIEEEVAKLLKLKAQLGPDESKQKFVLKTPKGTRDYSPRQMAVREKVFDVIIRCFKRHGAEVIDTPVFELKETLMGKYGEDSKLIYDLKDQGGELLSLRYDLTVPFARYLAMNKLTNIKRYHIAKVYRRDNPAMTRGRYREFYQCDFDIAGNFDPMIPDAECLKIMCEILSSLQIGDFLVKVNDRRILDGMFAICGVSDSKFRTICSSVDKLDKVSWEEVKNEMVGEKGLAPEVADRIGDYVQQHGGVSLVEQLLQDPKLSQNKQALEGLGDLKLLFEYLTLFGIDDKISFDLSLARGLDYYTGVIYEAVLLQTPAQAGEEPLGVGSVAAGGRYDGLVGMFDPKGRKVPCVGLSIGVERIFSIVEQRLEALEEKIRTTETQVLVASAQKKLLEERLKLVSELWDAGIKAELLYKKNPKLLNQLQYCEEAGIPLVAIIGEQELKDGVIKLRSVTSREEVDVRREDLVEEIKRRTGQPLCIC
The assay is described as above. The protocol:
as §1, §2

Assay [8] concerns the target T7, lysyl-tRNA synthetase (KRS), recombinant (human, UniProt Q15046 1-597, limits assumed).
T7 construct: the construct is not described; also called KRS antigen; recombinant KRS standard material
Description: SPR (ProteOn XPR36), KRS amine-coupled to GLC chip, purified scFv injected at 500-30 nM, 25 C. The protocol:
The binding affinity of the antibody of the present invention to KRS antigen was measured using the ProteOnTMXPR36 SPR (surface plasmon resonance) biosensor (Bio-Rad).
Specifically, approximately 10 μg/ml KRS antigen was immobilized at about 2,000-4,000 response units to GLC chip (Bio-Rad 6×6 sensor chip, Compact capacity amine coupling for protein-protein interactions) according to the manufacturer's manual, and then 30 μl of the purified scFv antibody of the present invention, which was diluted with PBS to various concentrations (500-30 nM), was injected to the chip at a rate of 50 μl/min at 25° C. to quantify the interaction with the antigen. The surface of the chip was regenerated with 0.85% phosphoric acid. The association rate and dissociation rate were calculated using the ProteOn Manager software, and the equilibrium dissociation constant (KD) was calculated as a ratio of dissociation rate/association rate.

T7 sequence (Q15046 whole entry): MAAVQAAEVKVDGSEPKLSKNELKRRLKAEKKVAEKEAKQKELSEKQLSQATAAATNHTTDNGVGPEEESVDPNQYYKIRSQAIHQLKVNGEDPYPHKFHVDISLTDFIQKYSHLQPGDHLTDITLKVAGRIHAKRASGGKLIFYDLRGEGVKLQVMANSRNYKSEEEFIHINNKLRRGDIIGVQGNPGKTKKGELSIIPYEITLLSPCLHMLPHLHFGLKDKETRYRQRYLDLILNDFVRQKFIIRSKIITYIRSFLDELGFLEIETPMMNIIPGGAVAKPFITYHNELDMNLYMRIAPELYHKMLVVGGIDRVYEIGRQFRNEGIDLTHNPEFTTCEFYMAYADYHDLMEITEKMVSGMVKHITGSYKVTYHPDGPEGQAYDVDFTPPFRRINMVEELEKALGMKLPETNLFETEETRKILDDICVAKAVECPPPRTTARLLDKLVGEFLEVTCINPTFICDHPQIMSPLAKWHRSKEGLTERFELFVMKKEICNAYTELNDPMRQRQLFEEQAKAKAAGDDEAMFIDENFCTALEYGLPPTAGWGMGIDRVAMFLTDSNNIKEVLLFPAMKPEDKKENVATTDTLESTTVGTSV
Chain of seryl-tRNA synthetase (SRS), recombinant (P49591 whole entry): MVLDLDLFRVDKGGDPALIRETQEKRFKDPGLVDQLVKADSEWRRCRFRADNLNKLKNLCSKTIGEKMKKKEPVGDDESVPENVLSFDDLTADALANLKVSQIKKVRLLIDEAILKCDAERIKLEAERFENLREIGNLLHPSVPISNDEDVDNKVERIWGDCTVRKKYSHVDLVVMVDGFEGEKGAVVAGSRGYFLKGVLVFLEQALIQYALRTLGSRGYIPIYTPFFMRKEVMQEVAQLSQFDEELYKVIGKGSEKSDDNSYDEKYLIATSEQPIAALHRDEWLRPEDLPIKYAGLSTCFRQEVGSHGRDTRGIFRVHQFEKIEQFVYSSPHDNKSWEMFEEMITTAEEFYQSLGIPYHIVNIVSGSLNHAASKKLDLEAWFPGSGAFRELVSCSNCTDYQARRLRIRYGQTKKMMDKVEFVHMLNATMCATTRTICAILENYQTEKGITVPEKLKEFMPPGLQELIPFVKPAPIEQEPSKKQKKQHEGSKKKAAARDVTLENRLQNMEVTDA

B1: anti-KRS scFv Biocon-K1 (scFv)
scFv: EVQLLESGGGLVQPGGSLRLSCAASGFTFSNYAMSWVRQAPGKGLEWVSGISPSSGDTYYADSVKGRFTISRDNSKNTLYLQMNSLRAEDTAVYYCAKGVWWYHPLLFDYWGQGTLVTVSSGGGGSGGGGSGGGGSQSVLTQPPSASGTPGQRVTISCSGSSSNIGNNTVSWYQQLPGTAPKLLIYANSKRPSGVPDRFSGSKSGTSASLAISGLRSEDEADYYCGAWDSSLSGYVFGGGTKLTVL
notes: Single clone from a human VH3-23/VL1g phage scFv library, expressed in the E. coli periplasm; Purified scFv was used in SPR and ELISA, periplasmic extract in western blot and Luminex assay; also called antibody of the present invention; anti-KRS scFv antibody; not shown: His and HA tags of the pComb3X vector are implied by Ni-NTA purification and anti-HA detection
As usually defined, the Kd is the free concentration of one partner at which half of the binding sites on the other are occupied at equilibrium, for simple one-to-one binding. For the molecule B1, the binding result in assay [1], in assay [2], in assay [3], in assay [4], in assay [5] and in assay [6] was “no binding” in each case. Also, in assay [7], the binding result is listed as “no binding”. The Kd in assay [8] was found to be 100 nM.

These data come from patent publication US20160377619A1 (MEDICINAL BIOCONVERGENCE RESEARCH CENTER, published 2016).
